Here are results for 1 molecule from patent publication US12156889B2, “Methods of administering mesenchymal stem cells activated by cytokines for enhancing immunosuppression” (Rutgers, The State University of New Jersey, priority 2012, dated 2024).

The subject of this experiment is CD4+ T cell blasts. The experiment is described as follows: T cell blast proliferation in co-culture with MSCs (3H-thymidine incorporation). In kind it is cell-based, mouse. As for the experimental part:
FIG. 1. is a graph showing that immunosuppression by MSCs is induced by proinflammatory cytokines. Cloned MSCs were supplemented with the indicated combinations of recombinant cytokines (20 ng/ml each) for 8 hours, then co-cultured with CD4+ T cell blasts at a 1:20 ratio (MSC:T cells), and proliferation assessed after an additional 8 hours. Values represent means±SD of five wells from a representative of three experiments with different clones. * p<0.001.
FIGS. 9A, 9B, 9C, 9D, 9E, 9F and 9G. (FIG. 9A). Cloned MSCs were first treated with the indicated combinations of recombinant cytokines IFNγ, TNFα, IL-17A (2 ng/ml each) for 12 hr, then cocultured with CD4^+ T cell blasts at a 1:20 ratio (MSC:T cells), and proliferation was assessed by 3H-thymidine incorporation after an additional 12 hr. (FIG. 9B). The mRNA expression of IL-17 receptor family members in MSCs or Raw 264.7 (Macrophages) were examined by RT-PCR. NC: No RT. (FIG. 9C). Surface expression of IL-17RA was detected by immunofluoresence or flow cytometry in cloned MSCs. (FIGS. 9D and 9E). MSCs were first treated with IFNγ and TNFα with or without IL-17A (10 ng/ml), IFNγ and TNFα were supplemented at different cytokine concentrations, for 12 hr, and then cocultured with CD4^+ T cell blasts (FIG. 9D) or T cell hybridoma A1.1 cells (FIG. 9E) at a ratio of 1:20 for 12 hr. T cell proliferation was measured by 3H-Tdr incorporation. (FIG. 9F). MSCs were first treated with IFNγ and TNFα (2 ng/ml) with graded concentrations of IL-17A, for 12 hr, and then cocultured with T cell hybridoma A1.1 cells at a ratio of 1:10 for 12 hr. T cell proliferation was measured by 3H-thymidine incorporation. (FIG. 9G). MSCs were cocultured with fresh C57BL/6 splenocytes plus anti-CD3, anti-CD28, and antibodies against IL-17A, at a 1:20 or 1:40 ratio (MSCs:splenocytes), for 48 hr, and then cell proliferation was assessed by 3H-thymidine incorporation. Proliferation values represent means±SEM of three wells from a representative of three experiments.
T cell blasts were generated from CD4^+ T cells purified by negative selection with […] T cell subset isolation kits (R&D Systems). Cells (1×10^6 cells/ml) were activated by plastic-bound anti-CD3 and soluble anti-CD 28 for 48 hours, then cultured with IL-2 (200 U/ml) alone for 48 hours. All T cell cultures were maintained in RPMI-1640 medium supplemented with 10% heat-inactivated FBS, 2 mM glutamine, 100 U/ml penicillin, 100 μ·g/ml streptomycin, and […] (complete medium).
Since most reported studies of immunosuppression by MSCs are based on their effects on T cell proliferation and cytokine production, the effect of MSCs was first examined on the IL-2-driven proliferation of T cell blasts. Fresh CD4^+ T cell blasts were generated from splenocytes by activation with anti-CD3 followed by expansion with IL-2 for several days (Devadas, et al. (2006) Immunity 25:237-247; Radvanyi, et al. (1996) Cell Immunol. 170:260-273). T cell blasts were added at a 1:20 ratio (MSC:T cells) along with IL-2 (200 U/ml). Cell proliferation was assessed by ^3H-Tdr incorporation after 8 hours. […] MSCs also had no effect on the proliferation of T hybridoma A1.1 cells. These T cells blasts and T hybridoma cells, however, produce no cytokines unless reactivated through the TCR (Fotedar, et al. (1985) J. Immunol. 135(5):3028-33). Thus, in the absence of T cell cytokines, MSCs were unable to suppress T cell proliferation.
The effect of IFNγ was then tested directly by adding isolated recombinant IFNγ (20 ng/ml) instead of activated splenocyte supernatant to the mixed co-cultures of MSC+ T cell blasts or MSC+A1.1 cells. […] Therefore, induction of the immunosuppressive function of MSCs by anti-CD3-activated splenocyte supernatant may be due to IFNγ acting in concert with either TNFα; IL-1α; or IL-1β on the MSCs. […]

Entries after “also recorded” stand apart in the source; their conditions may differ.

B1: IL-17A: recombinant mouse interleukin 17A (protein)
chain: AAIIPQSSACPNTEAKDFLQNVKVNLKVFNSLGAKVSSRRPSDYLNRSTSPWTLHRNEDPDRYPSVIWEAQCRHQRCVNAEGKLDHHMNSVLIQQEILVLKREPESCPFTFRVEKMLVGVGCTCVASIVRQAA
With B1, the “T cell proliferation after MSC treatment with low-concentration cytokines” value (2 ng/ml each, 12 hr, then 1:20 MSC:T cells) is listed as “cannot induce immunosuppression; also recorded: markedly enhanced”. For the same molecule, for the setting “10 ng/ml IL-17A, CD4+ T cell blasts or A1.1”, the “IFNγ and TNFα concentrations (as low as) at which IL-17A enhances the immunosuppressive effect of MSCs” value is 1 to 2 ng/mL. Besides, the “immunosuppression at higher concentrations of IFNγ and TNFα” value (IFNγ and TNFα 10-20 ng/ml) is listed as “still improved immunosuppression”.
